Patent US20250296971A1, “GASTRIC INHIBITORY PEPTIDE RECEPTOR LIGANDS” (priority 2021, published 2025)
Each block holds one binder with its values, some of them ahead of it. *1 amine or outer side, *2 acyl side, *3 side chain or, on linkers, in order; H or OH if unused. Bridges are numbered along the chain shown (N, C = ends). Primed or numbered codes have the meaning given here. Where no end group is shown, it is not given here. [ ]: non-standard residue; d: D form. The star is where a group is joined. 2,6‑lutidylidene = 2Lut, Cys-Cys crosslink via 2,6-lutidylidene; dE(AGLU) = D-glutamic acid bearing 1-amino-1-deoxy-D-glucitol; Pro(trans-4-NH2) = O=C([C@@H]1C[C@@H](N[*:3])CN1[*:1])[*:2]; DOTA = O=C(O)CN1CCN(CC(=O)O)CCN(CC(=O)*)CCN(CC(=O)O)CC1; 2Lut = 2,6-lutidylidene bridge between two thiols; Trp(5-Cl) = N[C@@H](Cc1c[nH]c2ccc(Cl)cc12)C(=O)O; Pyridine(2,6-diCH2) = c1cc(C[*:1])nc(C[*:2])c1; 2Lut″ = 2,6-lutidylidene linking two thiols; Cysol = L-cysteinol, OC[C@H](CS[*:3])N[*:1]; Pro(trans-4-F) = O=C(O)[C@@H]1C[C@@H](F)CN1; APAc = 4-amino-1-carboxymethylpiperidine; mXylylene = c1cc(C[*:1])cc(C[*:2])c1; Glutaryl = O=C(CCCC(=O)[*:2])[*:1]; AGLU = 1-amino-1-deoxy-D-glucitol; Hyp = O=C(O)[C@@H]1C[C@@H](O)CN1; pS = N[C@@H](COP(=O)(O)O)C(=O)O; dGlu(AGLU) = not defined here; Aic = NC1(C(=O)O)Cc2ccccc2C1; hSer = N[C@@H](CCO)C(=O)O; Nphe′ = N-phenylalanine; Thp = NC1(C(=O)O)CCOCC1; AEEA = NCCOCCOCC(=O)O; Aib = CC(C)(N)C(=O)O; Nleu′ = N-leucine; Sar = CNCC(=O)O

Molecular target: human Gastric Inhibitory Peptide Receptor (human) (UniProt P48546)
Sequence (P48546 22-466 limits assumed): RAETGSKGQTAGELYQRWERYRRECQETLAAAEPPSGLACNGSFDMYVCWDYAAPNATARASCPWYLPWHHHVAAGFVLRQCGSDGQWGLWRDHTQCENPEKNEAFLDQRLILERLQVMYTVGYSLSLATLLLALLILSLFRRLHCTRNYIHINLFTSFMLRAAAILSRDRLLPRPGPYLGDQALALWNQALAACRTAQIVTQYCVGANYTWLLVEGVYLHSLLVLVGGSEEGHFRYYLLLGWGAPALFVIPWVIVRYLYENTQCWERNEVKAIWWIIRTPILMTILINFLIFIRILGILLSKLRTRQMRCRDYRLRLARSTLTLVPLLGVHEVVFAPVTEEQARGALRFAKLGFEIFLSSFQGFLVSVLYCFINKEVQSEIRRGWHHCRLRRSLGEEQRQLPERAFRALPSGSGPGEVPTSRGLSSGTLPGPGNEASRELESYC
Assay: FACS competition with GIP-057 on CHO-K1-hGIPR cells; pIC50 category A: >8.0

- pIC50: > 8 pic50
B1: Ac-Gln-Trp-5Clw-Hyp-Glu-leu-[Cys(2Lut)-Thp-Leu-Ile-Cys]-NH2 (peptide)
peptide: Ac-QW[Trp(5-Cl)][Hyp]E[dL]C[Thp]LIC-NH2
modifications: linker 7-11 via 2Lut″

- pIC50: > 8 pic50
B2: Ac-Asp-Trp-5Clw-Hyp-Asn-leu-[Cys(2Lut)-Thp-Leu-Ile-Cys]-NH2 (peptide)
peptide: Ac-DW[Trp(5-Cl)][Hyp]N[dL]C[Thp]LIC-NH2
modifications: linker 7-11 via Pyridine(2,6-diCH2)

- pIC50: > 8 pic50
B3: Ac-Hse-Trp-5Clw-Hyp-Glu-leu-[Cys(2Lut)-Thp-Leu-Ile-Cys]-NH2 (peptide)
peptide: Ac-[hSer]W[Trp(5-Cl)][Hyp]E[dL]C[Thp]LIC-NH2
modifications: linker 7-11 via Pyridine(2,6-diCH2)
SMILES: CC[C@H](C)[C@@H]1NC(=O)[C@H](CC(C)C)NC(=O)C2(CCOCC2)NC(=O)[C@@H](NC(=O)[C@@H](CC(C)C)NC(=O)[C@H](CCC(=O)O)NC(=O)[C@@H]2C[C@@H](O)CN2C(=O)[C@H](Cc2c[nH]c3ccc(Cl)cc23)NC(=O)[C@H](Cc2c[nH]c3ccccc23)NC(=O)[C@H](CCO)NC(C)=O)CSCc2cccc(n2)CSC[C@@H](C(N)=O)NC1=O

- pIC50: > 8 pic50
B4: Ac-Asp-Trp-5Clw-Hyp-Glu-leu-[Cys(2Lut)-Thp-Leu-Ile-Cysol]-OH (peptide)
peptide: Ac-DW[Trp(5-Cl)][Hyp]E[dL]C[Thp]LI[Cysol]-OH
modifications: linker 7-11 via Pyridine(2,6-diCH2)

- pIC50: > 8 pic50
B5: Ac-Asp-Trp-5Clw-Nleu-Glu-leu-[Cys(2Lut)-Thp-Leu-Ile-Cys]-NH2 (peptide)
peptide: Ac-DW[Trp(5-Cl)][Nleu′]E[dL]C[Thp]LIC-NH2
modifications: linker 7-11 via Pyridine(2,6-diCH2)

- pIC50: > 8 pic50
B6: Ac-Asp-Trp-5Clw-4Tfp-Glu-leu-[Cys(2Lut)-Thp-Leu-Ile-Cys]-NH2 (peptide)
peptide: Ac-DW[Trp(5-Cl)][Pro(trans-4-F)]E[dL]C[Thp]LIC-NH2
modifications: linker 7-11 via Pyridine(2,6-diCH2)

- pIC50: > 8 pic50
B7: Ac-Pse-Trp-5Clw-Hyp-Glu-leu-[Cys(2Lut)-Thp-Leu-Ile-Cys]-NH2 (peptide)
peptide: Ac-[pS]W[Trp(5-Cl)][Hyp]E[dL]C[Thp]LIC-NH2
modifications: linker 7-11 via Pyridine(2,6-diCH2)
SMILES: CC[C@H](C)[C@@H]1NC(=O)[C@H](CC(C)C)NC(=O)C2(CCOCC2)NC(=O)[C@@H](NC(=O)[C@@H](CC(C)C)NC(=O)[C@H](CCC(=O)O)NC(=O)[C@@H]2C[C@@H](O)CN2C(=O)[C@H](Cc2c[nH]c3ccc(Cl)cc23)NC(=O)[C@H](Cc2c[nH]c3ccccc23)NC(=O)[C@H](COP(=O)(O)O)NC(C)=O)CSCc2cccc(n2)CSC[C@@H](C(N)=O)NC1=O

- pIC50: > 8 pic50
B8: Ac-Asp-Trp-5Clw-Hyp-Asp-leu-[Cys(2Lut)-Thp-Leu-Ile-Cys]-NH2 (peptide)
peptide: Ac-DW[Trp(5-Cl)][Hyp]D[dL]C[Thp]LIC-NH2
modifications: linker 7-11 via Pyridine(2,6-diCH2)

- pIC50: > 8 pic50
B9: Ac-Asp-Trp-5Clw-Nphe-Glu-leu-[Cys(2Lut)-Thp-Leu-Ile-Cys]-NH2 (peptide)
peptide: Ac-DW[Trp(5-Cl)][Nphe′]E[dL]C[Thp]LIC-NH2
modifications: linker 7-11 via Pyridine(2,6-diCH2)

- pIC50: > 8 pic50
B10: Ac-Asp-Trp-5Clw-Hyp-Gln-leu-[Cys(2Lut)-Thp-Leu-Ile-Cys]-NH2 (peptide)
peptide: Ac-DW[Trp(5-Cl)][Hyp]Q[dL]C[Thp]LIC-NH2
modifications: linker 7-11 via Pyridine(2,6-diCH2)

- pIC50: > 8 pic50
B11: DOTA-glu(AGLU)-O2Oc-Asp-Trp-5Clw-Tap-Glu-leu-[Cys(2Lut)-Thp-Leu-Ile-Cys]-APAc-glu(AGLU)-NH2 (peptide)
peptide: {DOTA-dGlu(AGLU)-AEEA}-DW[Trp(5-Cl)][Pro(trans-4-NH2)]E[dL]C[Thp]LIC-{APAc-dGlu(AGLU)-NH2}
modifications: linker 7-11 via 2Lut; reading uncertain

- pIC50: > 8 pic50
B12: HO-Succinyl-Trp-5Clw-Pro-Glu-leu-[Cys(3MeBn)-Aib-Leu-Ile-Cys]-NH2 (peptide)
peptide: W[Trp(5-Cl)]PE[dL]C[Aib]LIC-NH2
modifications: linker 6-10 via mXylylene; not fully specified (N-terminus); printed as HO-Succinyl-Trp-5Clw-Pro-Glu-leu-[Cys(3MeBn)-Aib-Leu-Ile-Cys]-NH2

- pIC50: > 8 pic50
B13: Ac-Asn-Trp-5Clw-Hyp-Glu-leu-[Cys(2Lut)-Thp-Leu-Ile-Cys]-NH2 (peptide)
peptide: Ac-NW[Trp(5-Cl)][Hyp]E[dL]C[Thp]LIC-NH2
modifications: linker 7-11 via Pyridine(2,6-diCH2)
SMILES: CC[C@H](C)[C@@H]1NC(=O)[C@H](CC(C)C)NC(=O)C2(CCOCC2)NC(=O)[C@@H](NC(=O)[C@@H](CC(C)C)NC(=O)[C@H](CCC(=O)O)NC(=O)[C@@H]2C[C@@H](O)CN2C(=O)[C@H](Cc2c[nH]c3ccc(Cl)cc23)NC(=O)[C@H](Cc2c[nH]c3ccccc23)NC(=O)[C@H](CC(N)=O)NC(C)=O)CSCc2cccc(n2)CSC[C@@H](C(N)=O)NC1=O

- pIC50: > 8 pic50
B14: Ac-Asp-Trp-5Clw-Hyp-Glu-leu-[Cys(2Lut)-Aic-Leu-Ile-Cys]-NH2 (peptide)
peptide: Ac-DW[Trp(5-Cl)][Hyp]E[dL]C[Aic]LIC-NH2
modifications: linker 7-11 via Pyridine(2,6-diCH2)

- pIC50: > 8 pic50
B15: Ac-Asp-Trp-5Clw-Nmg-Glu-leu-[Cys(2Lut)-Thp-Leu-Ile-Cys]-NH2 (peptide)
peptide: Ac-DW[Trp(5-Cl)][Sar]E[dL]C[Thp]LIC-NH2
modifications: linker 7-11 via Pyridine(2,6-diCH2)

- pIC50: > 8 pic50
B16: AGLU-Glutar-Asp-Trp-5Clw-Tap-Glu-leu-[Cys(2Lut)-Lys(DOTA)-Leu-Ile-Cys]-APAc-glu(AGLU)-NH2 (peptide)
peptide: {AGLU-Glutaryl}-DW[Trp(5-Cl)][Pro(trans-4-NH2)]E[dL]CK(DOTA)LIC-{APAc-dE(AGLU)-NH2}
modifications: linker 7-11 via 2,6‑lutidylidene
